Here are results for 4 molecules from patent US20100322893A1 (MEDLMMUNE, published 2010).

The target in one assay is B7-1 on Raji cells (UniProt P33681). Description: cell-based or functional assay. Further details: unit not given beside the values.
The target of a further assay is B7-2 on Raji cells (UniProt P42081). Description: cell-based or functional assay. On the set-up: unit not given beside the values.
For assay [1], the target named is T1, B7-1 coated on the plate of the stability RIA (human, UniProt P33681 35-242).
T1 construct: also called human B7-1 (RnD Systems, 140-B1)
T1 sequence (looked up): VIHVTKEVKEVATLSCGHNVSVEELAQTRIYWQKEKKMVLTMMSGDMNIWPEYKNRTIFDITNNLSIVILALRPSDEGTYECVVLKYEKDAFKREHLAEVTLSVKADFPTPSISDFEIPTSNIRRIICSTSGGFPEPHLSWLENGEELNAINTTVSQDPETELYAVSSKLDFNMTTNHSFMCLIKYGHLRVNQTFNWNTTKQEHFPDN
Description: stability RIA: 35S-labelled in vitro translated CTLA-4 on a plate coated with B7-1, 10 mM DTT against no DTT. Here is the method:
(§1) CTLA-4 variants were screened for stability using the primary stability RIA (radio immunoassay) as described in Jermutus et al., (2001). In brief for each variant a linear DNA template was amplified, transcribed, the mRNA purified on G25 Sephadex® columns and quantified. For each variant in vitro translations in the presence of ³⁵S-labelled methionine were set up in duplicate at 30° C. for 30 min, one in non-reducing conditions and one in 10 mM DTT (dithiothreitol). The translations were stopped with PBS with 0.050 Tween 20, with DTT at the same concentration as the translations. The translation mixture was incubated on a plate coated with B7-1 for 1 hour at room temperature. Plates were washed three times in PBS with 0.05% Tween 20® and three times in PBS. The remaining radioactivity was eluted with 0.1 M triethylamine and quantified by liquid scintillation counting. A measure of the variants' stability was calculated as the percentage residual binding i.e. binding signal in presence of DTT, divided by binding signal in absence of DTT, multiplied by 100.

The target in assay [2] is T1, B7-1 coated on the plate of the …. Description: stability RIA: 35S-labelled in vitro translated CTLA-4 on a plate coated with B7-1, non-reducing conditions. The method, then:
as §1

Where a chain is given by its changes, count along the chain named.

B7-2 on Raji cells, sequence (P42081 24-329 limits assumed): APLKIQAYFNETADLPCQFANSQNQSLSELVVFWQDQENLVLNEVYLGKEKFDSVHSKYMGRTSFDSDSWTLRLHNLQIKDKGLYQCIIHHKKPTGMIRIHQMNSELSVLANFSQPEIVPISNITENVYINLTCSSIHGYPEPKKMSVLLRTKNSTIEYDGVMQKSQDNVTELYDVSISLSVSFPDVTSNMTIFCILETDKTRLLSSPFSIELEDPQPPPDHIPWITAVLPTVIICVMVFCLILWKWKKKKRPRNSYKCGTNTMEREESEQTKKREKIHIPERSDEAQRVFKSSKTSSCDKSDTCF

Regarding “CTLA-4 human wild-type (SEQ ID NO: 8), CTLA-4-Fc form (from UniProt P16410 37-161) (Fc fusion; in M (unit assumed))”, the EC50, inhibition of IL-2 production in the Jurkat and Raji dual cell assay (B7-1 and B7-2 both free) with B7-1 on Raji cells and with B7-2 on Raji cells was 1.27e-08 each time.

B1: CTLA-4 variant Var 3 (SEQ ID 7), monomeric form with serine at position 121, translated in vitro (receptor)
chain: AMHVAQPAVVLASSRGIASFVCEYAPPGKATEVRVTVLRQADSQVTEVWAATYMMGNESTFPDDSICTGTFSGNQVNLTIRGLRAMDTGLYICEVELMYPPPYYLGIGNGTQIYVIDPEPSPDSD
modifications: 35S-labelled methionine
B1: in assay [1], the “% Residual Binding (signal in 10 mM DTT divided by signal without DTT, times 100)” value stood at 75%. Also, the “Signal DTT- (RIA signal after non-reducing conditions, signal over background)” value in assay [2] stood at 13.2 signal over background.

B2: CTLA-4 variant Var 1 (SEQ ID 5), monomeric form with serine at position 121, translated in vitro (receptor)
chain: B1 chain with I17T, W49Y, F61S, P62L, R81Q
modifications: 35S-labelled methionine
For B2, the “% Residual Binding (signal in 10 mM DTT divided by signal without DTT, times 100)” value in assay [1] was 55%. Also, in assay [2], the “Signal DTT- (RIA signal after non-reducing conditions, signal over background)” value amounted to 2.6 signal over background.

B3: CTLA-4 variant Var 2 (SEQ ID 6), monomeric form with serine at position 121, translated in vitro (receptor)
chain: B1 chain with S43G, T46S, W49C, P62L
modifications: 35S-labelled methionine
Turning to B3, the “% Residual Binding (signal in 10 mM DTT divided by signal without DTT, times 100)” value in assay [1] was found to be 11%. In addition, the “Signal DTT- (RIA signal after non-reducing conditions, signal over background)” value in assay [2] was found to be 29.8 signal over background.
